# Reference: the RNAGym collection of RNA variant scans (doi:10.1093/molbev/msab373)
# B1: Azoarcus group I ribozyme (parent)
# chain: GUGCCUUGCGCCGGGAAACCACGCAAGGGAUGGUGUCAAAUUCGGCGAAACCUAAGCGCCCGCCCGGGCGUAUGGCAACGCCGAGCCAAGCUUCGGCGCCUGCGCCGAUGAAGGUGUAGAGACUAGACGGCACCCACCUAAGGCAAACGCUAUGGUGAAGGCAUAGUCCAGGGAGUGGCGAAAGUCACACAAACCGG
# Variants of: B1
# Experiment: reverse-splicing fitness (ratio to wild type); higher = more active; in vitro selection; Mg2+ level not given
# Method in brief: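 An in vitro group I ribozyme library with randomized positions was T7-transcribed and gel-purified. In triplicate, 10 pmol RNA in EPPS pH 7.5 was reacted with 50 pmoles of a 30-nt RNA substrate for 1 h at 37 °C across several added MgCl2 levels (1–48 mM), then stopped with EDTA. Products were reverse transcribed from a substrate-complementary primer, PCR-amplified and sequenced (HiSeq 4000). Fitness is a variant's read proportion after selection over that before, normalised to wild type.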
row,Variant,reverse-splicing fitness
1,C82U A120U A145G C150G C169U U176G,0.00348
2,C82U A120U A145G C150G C169U U176C,0.00545
3,C82U A120U A145G C150G C169U U176A,0.00708
4,C82U A120U A145U C150U U176G,0.00848
5,C82U A120U A145U C150U U176A,0.0284
6,C82U A120U A145U C150U U176C,0.0465
7,C82U A120U C150A C169G U176G,0.00171
8,C82U A120U C150A C169G U176C,0.00268
9,C82U A120U C150A C169G U176A,0.00443
10,C82U A120U A145U C150U C169A U176C,0.00256
11,C82U A120U A145U C150U C169A U176A,0.00262
12,C82U A120U A145U C150U C169A U176G,0.0019
13,C82U A120U A145G C169G U176G,0.00136
14,C82U A120U A145G C169G U176C,0.00346
15,C82U A120U A145G C169G U176A,0.00271
16,C82U A120U A145G C150G,0.0229
17,C82U A120U A145G C150U,0.137
18,C82U A120U A145G C150A,0.0257
19,C82U A120U A145G C150A C169U U176A,0.0038
20,C82U A120U A145G C150A C169U U176G,0.00199
21,C82U A120U A145G C150A C169U U176C,0.00329
22,C82U A120U A145G C150A C169A U176G,0.00241
23,C82U A120U A145G C150A C169A U176C,0.00294
24,C82U A120U A145G C150A C169A U176A,0.00482

row,Variant,reverse-splicing fitness
1,C82U A120U A145G C150U C169G U176G,0.0018
2,C82U A120U A145G C150U C169G U176C,0.00361
3,C82U A120U A145G C150U C169G U176A,0.00433
4,C82U A120U A145U C169U,0.00594
5,C82U A120U A145U C169G,0.00533
6,C82U A120U A145U C169A,0.00208
7,C82U A120U A145G C150G C169G,0.00646
8,C82U A120U A145G C150G C169A,0.00721
9,C82U A120U A145G C150G C169U,0.00613
10,C82U A120U A145C C169A U176G,0.00159
11,C82U A120U A145C C169A U176C,0.0016
12,C82U A120U A145C C169A U176A,0.00163
13,C82U A120G A145U C150G C169A U176A,0.00927
14,C82U A120G A145U C150G C169A U176C,0.00949
15,C82U A120G A145U C150G C169A U176G,0.00411
16,C82U A120U A145U C150A U176G,0.00379
17,C82U A120U A145U C150A U176A,0.00666
18,C82U A120U A145U C150A U176C,0.0101
19,C82U A120U,0.174
20,C82U A120U A145U C150U C169U,0.00476
21,C82U A120U A145U C150U C169A,0.0024
22,C82U A120U A145U C150U C169G,0.00432
23,C82U A120G C150A C169G U176A,0.018
24,C82U A120G C150A C169G U176G,0.00456

row,Variant,reverse-splicing fitness
1,C82U A120G C150A C169G U176C,0.0214
2,C82U A120U A145C C150G C169G U176G,0.00188
3,C82U A120U A145C C150G C169G U176C,0.0019
4,C82U A120U A145C C150G C169G U176A,0.00206
5,C82U A120U A145G C169G,0.00532
6,C82U A120U A145G C169U,0.00624
7,C82U A120U A145G C169A,0.00259
8,C82U A120G A145U C150U C169A U176A,0.0106
9,C82U A120G A145U C150U C169A U176C,0.0085
10,C82U A120G A145U C150U C169A U176G,0.00326
11,C82U A120U A145G C150U U176G,0.0067
12,C82U A120U A145G C150U U176A,0.0299
13,C82U A120U A145G C150U U176C,0.0607
14,C82U A120U A145C C150U,0.0391
15,C82U A120U A145C C150A,0.00884
16,C82U A120U A145C C150G,0.0193
17,C82U A120U A145G C150G C169A U176G,0.00459
18,C82U A120U A145G C150G C169A U176A,0.0107
19,C82U A120U A145G C150G C169A U176C,0.00568
20,C82U A120G C169U U176G,0.0054
21,C82U A120G C169U U176A,0.0244
22,C82U A120G C169U U176C,0.0176
23,C82U A120G A145U C169G U176G,0.00314
24,C82U A120G A145U C169G U176C,0.0138

row,Variant,reverse-splicing fitness
1,C82U A120G A145U C169G U176A,0.0111
2,C82U A120U C150G C169A U176A,0.00476
3,C82U A120U C150G C169A U176G,0.00234
4,C82U A120U C150G C169A U176C,0.003
5,C82U A120G C150A C169A U176A,0.0174
6,C82U A120G C150A C169A U176G,0.00477
7,C82U A120G C150A C169A U176C,0.0164
8,C82U A120U C150A C169A U176A,0.00373
9,C82U A120U C150A C169A U176G,0.00199
10,C82U A120U C150A C169A U176C,0.0026
11,C82U A120U A145U C150G,0.0184
12,C82U A120U A145U C150U,0.106
13,C82U A120U A145U C150A,0.0156
14,C82U A120G C150A C169G,0.0102
15,C82U A120G C150A C169A,0.0118
16,C82U A120G C150A C169U,0.00872
17,C82U A120U A145U C150G C169G,0.00248
18,C82U A120U A145U C150G C169A,0.00259
19,C82U A120U A145U C150G C169U,0.00244
20,C82U A120U A145U C150G U176G,0.00253
21,C82U A120U A145U C150G U176A,0.00548
22,C82U A120U A145U C150G U176C,0.0104
23,C82U A120G C150A U176G,0.00583
24,C82U A120G C150A U176A,0.0116

row,Variant,reverse-splicing fitness
1,C82U A120G C150A U176C,0.0166
2,C82U A120U A145C C169G U176C,0.00167
3,C82U A120U A145C C169G U176G,0.00143
4,C82U A120U A145C C169G U176A,0.00282
5,C82U A120U A145U C150A C169A,0.00179
6,C82U A120U A145U C150A C169U,0.0022
7,C82U A120U A145U C150A C169G,0.00199
8,C82U A120U A145U,0.181
9,C82U A120U A145C,0.153
10,C82U A120U A145G,0.167
11,C82U A120G C169A U176C,0.0213
12,C82U A120G C169A U176A,0.0194
13,C82U A120G C169A U176G,0.00354
14,C82U A120G C150U C169U U176C,0.0185
15,C82U A120G C150U C169U U176A,0.0237
16,C82U A120G C150U C169U U176G,0.00509
17,C82U A120U A145G C169U U176C,0.00381
18,C82U A120U A145G C169U U176A,0.00293
19,C82U A120U A145G C169U U176G,0.00155
20,C82U A120U A145U C150G C169A U176C,0.00203
21,C82U A120U A145U C150G C169A U176A,0.00252
22,C82U A120U A145U C150G C169A U176G,0.0021
23,C82U A120G A145U C150U C169U U176G,0.00327
24,C82U A120G A145U C150U C169U U176A,0.022

row,Variant,reverse-splicing fitness
1,C82U A120G A145U C150U C169U U176C,0.0154
2,C82U A120G A145U C150U C169A,0.014
3,C82U A120G A145U C150U C169G,0.0171
4,C82U A120G A145U C150U C169U,0.0143
5,C82U A120U C150A U176A,0.00756
6,C82U A120U C150A U176C,0.0109
7,C82U A120U C150A U176G,0.00418
8,C82U A120G C150G C169U,0.00921
9,C82U A120G C150G C169G,0.0077
10,C82U A120G C150G C169A,0.00923
11,C82U A120U A145C C169U,0.00535
12,C82U A120U A145C C169G,0.00426
13,C82U A120U A145C C169A,0.00174
14,C82U A120G A145U U176A,0.0127
15,C82U A120G A145U U176G,0.00403
16,C82U A120G A145U U176C,0.0139
17,C82U A120G A145U C169A U176G,0.00294
18,C82U A120G A145U C169A U176A,0.00994
19,C82U A120G A145U C169A U176C,0.0105
20,C82U A120G A145U C150U C169G U176G,0.00343
21,C82U A120G A145U C150U C169G U176A,0.0116
22,C82U A120G A145U C150U C169G U176C,0.0139
23,C82U A120G C169G,0.0242
24,C82U A120G C169A,0.0184

row,Variant,reverse-splicing fitness
1,C82U A120G C169U,0.0177
2,C82U A120G U176G,0.00399
3,C82U A120G U176C,0.0175
4,C82U A120G U176A,0.0132
5,C82U A120U A145U C169A U176G,0.00174
6,C82U A120U A145U C169A U176A,0.00185
7,C82U A120U A145U C169A U176C,0.00166
8,C82U A120U A145U C150U C169U U176C,0.00368
9,C82U A120U A145U C150U C169U U176G,0.00217
10,C82U A120U A145U C150U C169U U176A,0.0028
11,C82U A120U A145U U176A,0.0411
12,C82U A120U A145U U176G,0.013
13,C82U A120U A145U U176C,0.0847
14,C82U A120G A145U C150G C169G U176A,0.00669
15,C82U A120G A145U C150G C169G U176G,0.00361
16,C82U A120G A145U C150G C169G U176C,0.00534
17,C82U A120U A145C C150G U176A,0.0055
18,C82U A120U A145C C150G U176C,0.00864
19,C82U A120U A145C C150G U176G,0.00242
20,C82U A120U A145C U176A,0.0354
21,C82U A120U A145C U176G,0.011
22,C82U A120U A145C U176C,0.0503
23,C82U A120G A145U C150U,0.0176
